Paper PMC11250262, “Understanding the genetic complexity of puberty timing across the allele frequency spectrum” (Nature Genetics, 2024)

Target: MC3R-RlucII (human, UniProt P41968 1-323)
Experiment: cell-based or functional assay

Chain of MC3R-RlucII (P41968 whole entry): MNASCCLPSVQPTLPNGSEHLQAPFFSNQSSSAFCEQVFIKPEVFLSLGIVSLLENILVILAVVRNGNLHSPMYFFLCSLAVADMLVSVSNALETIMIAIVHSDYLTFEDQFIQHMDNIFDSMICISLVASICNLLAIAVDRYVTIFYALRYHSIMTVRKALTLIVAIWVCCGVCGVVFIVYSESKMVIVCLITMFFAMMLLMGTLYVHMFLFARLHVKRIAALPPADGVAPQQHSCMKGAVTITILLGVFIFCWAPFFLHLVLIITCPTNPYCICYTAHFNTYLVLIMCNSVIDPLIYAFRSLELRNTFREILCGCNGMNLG

B1: GPR83-Venus (receptor, human, UniProt Q9NYM4-1 17-423, looked up)
chain: TEPHEGRADEQSAEAALAVPNASHFFSWNNYTFSDWQNFVGRRRYGAESQNPTVKALLIVAYSFIIVFSLFGNVLVCHVIFKNQRMHSATSLFIVNLAVADIMITLLNTPFTLVRFVNSTWIFGKGMCHVSRFAQYCSLHVSALTLTAIAVDRHQVIMHPLKPRISITKGVIYIAVIWTMATFFSLPHAICQKLFTFKYSEDIVRSLCLPDFPEPADLFWKYLDLATFILLYILPLLIISVAYARVAKKLWLCNMIGDVTTEQYFALRRKKKKTIKMLMLVVVLFALCWFPLNCYVLLLSSKVIRTNNALYFAFHWFAMSSTCYNPFIYCWLNENFRIELKALLSMCQRPPKPQEDRPPSPVPSFRVAWTEKNDGQRAPLANNLLPTSQLQSGKTDLSSVEPIVTMS
B1 was tested. Which “NDP-αMSH-stimulated cAMP production (GloSensor, area under the curve) in HEK293 cells cotransfected with GPR83 and MC3R (1:1 ratio), against MC3R alone” value did it give?
The value was 43%.
